The target of series [1] is His6-tagged CENP-B DBD complexed with a 21 base-pair DNA (human) (UniProt P07199). Put plainly: pull-down; His6-tagged CENP-B DBD with 21 base-pair CENP-B box DNA (50 nM) held on Ni-NTA agarose beads; histone complex 50 nM; 20 mM Tris-HCl pH 8.0, 300 mM NaCl, 60 mM imidazole, 0.3% Tween-20, BSA, 4 °C 60 min; washes with 500 mM NaCl, 30 mM imidazole; 16% SDS-PAGE with Coomassie.

The target of series [2] is T1, CENP-B DBD (Homo sapiens, UniProt P07199 1-129).
T1 sequence: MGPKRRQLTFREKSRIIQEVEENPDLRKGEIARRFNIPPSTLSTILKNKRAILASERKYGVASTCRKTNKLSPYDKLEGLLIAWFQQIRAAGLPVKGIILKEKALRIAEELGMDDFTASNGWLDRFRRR
Put plainly: competition; naked competitor; DBD-DNA complex increases with DNA amount; Buffer of the EMSA and competition assays not in material (6% native PAGE, ethidium bromide); pull-down: 20 mM Tris-HCl pH 8.0, 300 mM NaCl, 60 mM imidazole, 0.3% Tween-20, 0.01 ug/ul BSA, 4 C, 60 min. The following applies: protein: recombinant; blunt. A general note: Mobility shift assays separate free from complexed probe on a gel.

As to “H3.1^CATD-H4 complex (from UniProt P68431 1-75; P49450 75-114; P68431 114-136; P62805 1-103)”, in series [1], the percent of H4 in the CENP-B-bound fraction against the CENP-A-H4 complex was 4%.

B1: 166-bp alpha-satellite DNA, proximal CENP-B box (naked) (dsDNA)
DNA 1: ATCTATTTGGACCGCATTGAGGCCTTCGTTGGAAACGGGATTTCTTCATTTCATGCTAGACAGAAGAATTCTCAGTAACTTCTTTGTGCTGTGTGTATTCAACTCACAGAGTGGAACGTCCCTTTGCACAGAGCAGATTTGAAACACTCTTTTTGTAGTCGACGAT
DNA 2: ATCGTCGACTACAAAAAGAGTGTTTCAAATCTGCTCTGTGCAAAGGGACGTTCCACTCTGTGAGTTGAATACACACAGCACAAAGAAGTTACTGAGAATTCTTCTGTCTAGCATGAAATGAAGAAATCCCGTTTCCAACGAAGGCCTCAATGCGGTCCAAATAGAT
As to B1, the binding result in series [2] was “binds”.

The values are drawn from publication PMC4446444, “Stable complex formation of CENP-B with the CENP-A nucleosome”.
